Test system: MS2 coat protein
Assay: apparent KD of MS2 coat protein; higher = weaker reporter binding
Conditions: Eterna round: R107
In short: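 Apparent KD per design is the median of normalised cluster binding-curve fits. Designed RNA switches transcribed on-chip from Illumina sequencing clusters were titrated with SNAP-549-labelled MS2 coat protein in twofold steps from 0.7 or 1.5 nM to 3 µM, with 0.8–1.5 h down to 10–20 min per step. Buffer: 100 mM Tris-HCl pH 7.5, 80 mM KCl, 4 mM MgCl2, without or with constant ligand.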

[1] = input ligand: theophylline 20 uM
[2] = input ligand: tryptophan 2.4 mM
[3] = input ligand: theophylline 2 mM

Sequence	apparent KD of MS2 coat protein (input ligand: arginine 13.2 mM) [nM]	apparent KD of MS2 coat protein [1] [nM]	apparent KD of MS2 coat protein [2] [nM]	apparent KD of MS2 coat protein (input ligand: none) [nM]	apparent KD of MS2 coat protein [3] [nM]
CGCUACGUAACUGAUACCAGUGUACUGACAUGAGGAUCACCCAUGUUGGGUUUUGUUGUACACCCUUGGCAGCAGAAUCGUAGCG [AstrosExyTheB#13]	58.7	79.2	61.3		
UGAGUUAGACAAAAGUCUAGCUCUGGUGAAGGAGCGUCCGAAAGGACAGGUAGGUCGCACCACCUGAGGAUCACCCAGGUUCCUA [ArgAS 14 #OpenEnded #AlternativeMS2]	28.5	29.8	38.9	42.1	57.2
AUGGUCGACGAUCUGCGAAAAGCAGAUCGACGAGGACCGGUACGGCCGCCACUCGUGUUUAUUUAACAUGAGGAUCACCCAUGUA [#14Tryptophan A Same State]	70.6	123			142
GAGUAGAGGACGGCCGCCACUAAACAUGAGGAUCACCCAUGUCGUGAUCCGUUACCUAGAGUAGAUAGGACCGGGUCAUAUAGUC [Exclusion Tryptophan B GF 16]	20.8	41.5			24.5
ACAUGAGGAUCACCCAUGUUCCUCGCCGAUACCAGUGAAGAAUUACGCCCUUGGCAGCGGAAAGAGUAUUUUGGAGAUGAGGUAC [6.Z]	51.7	127	66		
UCGCUCGCAGAAAUGCGAGCGAGUUGCGAUACCAGCCCGGAAACGGGCCCUUGGCAGCGCACAUGAGGAUCACCCAUGUCAUGUU [Exclusion - Theophylline A Attempt #2 (HarryS)]	17.3	24.7	18.1		
AGCCCUGUGCUAGAUACCAGCUACAUGAGGAUCACCCAUGUGCGUCAGAAAUGACUGUGUAGCCCUUGGCAGCUACUCGCAUGUA [Exclusion - Theophylline B (Freestyle 6)]	13	20.2	13.5		
CACGGACGAGUGGAUCACCCUCGUAAUAACCGAGGACCGGUACGGCCGCCACUCGAAAACCGUGACCUGUACGAAAAGUGCAGGA	56.1	210	73.2	88.7	531
GAUACGCAGUCGGCCGCCACUUGCUAAGGUGACAAACCAAAACAUGAGGAUCACCCAUGUCUGAUAAGGACCGGGACCACCAUGG [theeternabot_sameState_MS2_Trp_B_14]	69.7	124			129
UAUCCACAUGAGGAUCACCCAUGUAGGGAAGGAGCGGUGAUUUCACCAGGUAGGUCGCCUUGCUGAGGGUAGCCGGUGGAAUCGU [Exclusion - Arginine A (Freestyle 32)]	24.4	22.4	10.9	19.7	9.15
CCUUAAUAUGGAAGGAGCGCGCUAACAUGAGGAUCACCCAUGUAAAGGGUUUUAGGCUUAGCGCAGGUAGGUCGCCGUAAGAACC [#09 Exclusion - Arginine B]	288	266	252	249	327
AGACAUGAGGAUCACCCAUGUAGCAUGGAUACCAGAUCCAGAUUUAUCCCUUGGCAGCUGUGGUAAAGUGAUGGAUUGCUCCUAG [Exclusion - Theophylline A (Freestyle 7)]	38.1	55.8	36.9		
UUCAGCUAGUCGGCCGCCACUACAUGAGGAUCACCCAUGUCGGUCCUCACUGCUUCGGCAGUGUGUAGGACCGGGACUAGCUGAG	62	93.6			91.3
GGUUACUCUACGGCCGCCACUGAACAUGAGGAUCACCCAUGUAAUGUUCAGACGUCUUUAGACGACAGGACCGGGUAGUGUAACC [Tryptophan B 5]	119	208			232
UCACUCUGGGUGAAUUCCGGAGAUGUGGAAGGAGCGGACGAAAGUCCAGGUAGGUCGCCAUCGGACAUGAGGAUCACCCAUGUAC [Same State - Arginine A (Freestyle 23)]	71.8	98	68.5	89	131
GAUGAACUAUUUGAUACCAGACUACAUGAGGAUCACCCAUGUGAGUUUAUACUUCAGUCAGUCCCUUGGCAGCAAAUAGUUUAUC [XTheo B #6]	38.3	60.9	42.1		
AUAUUUAACGGAAGGAGCGGGAAAUAAUCAUGAUGACAUGAGGAUCACCCAUGUCUUAAAACCCAGGUAGGUCGCCGAAUAAUAA [Same State - Arginine B]	12.1	14.5	11.7	11.1	13
UGCGAUGAACCUGAUACCAGAUGUAUUUGCUCCUCGGACAACAUGAGGAUCACCCAUGUCAUCCCUUGGCAGCAGGAGCGAAAGC [theeternabot_exclusion_MS2_Theo_B_21]	12.8	14.3	11.4		
CUAUAUGGAAACAUAUAGACGCAAAAGCGACGAGGACCGGUACGGCCGCCACUCGAAGAGUGGUGGACAUGAGGAUCACCCAUGU [Design 3 MOD]	38.3	73.1	58.5	54.6	58.9

Sequence	apparent KD of MS2 coat protein (input ligand: arginine 13.2 mM) [nM]	apparent KD of MS2 coat protein [1] [nM]	apparent KD of MS2 coat protein [2] [nM]	apparent KD of MS2 coat protein (input ligand: none) [nM]	apparent KD of MS2 coat protein [3] [nM]
CACGAAAGAUCGGCCGCCACUAAUCUAUGUGUUCUUUCACAUGAGGAUCACCCAUGUUCUUGCGUUAGGACCGGGAUUGAGCGUG [#02 Exclusion Tryptophan B]	29.9	39.7			36.6
CAUGAAGUAACUGAUACCAGUGUACUGACAUGAGGAUCACCCAUGUUGGGUUUUGUUGUACACCCUUGGCAGCAGAAUCUUUAUG [AstrosExyTheB#4]	50	70.8	58.5		
UGUAUGUGAUUUGAUACCAGACCAGCUGGUGUUCCAUGAGGAUCACCCAUGGAGGUUUGGGUCCCUUGGCAGCAAAUCGCAUACU [SS Theo B #24 Ms16]	33.2	34	30.3	25.2	23.2
AGACAUGUAAGAUAAUUGACUUUUACAGAUACCAGACUGUCUAAUGUCCCUUGGCAGCUGCAUUACAUGAGGAUCACCCAUGUUA [JR_ExcTheophyA_Sub011]	15.9	20.3	17.5		
GGCGCGGUGAUGGAAGCCGAACGCUAGGUACGAGGACCGGUACGGCCGCCACUCGUAGUCCUGGGACAUGAGGAUCACCCAUGUA [Same State Trp A GF20]	39.3	109	51.2	119	96
UGUAACAUGAGGAUCACCCAUGUAAGUGAUACCAGAUAAGUAGUAGUCCCUUGGCAGCAUAUUGGGAAAGUGUAUAGUGUAUAUG [Same State - Theophylline A (Freestyle 4)]	48.9	72.3	58.4		
GGGUGGUAGGCGGCCGCCACUGAUUUUCAUUCAUAGAUGACAUGAGGAUCACCCAUGUUUAUGUGCAGGACCGGGCCUGCUGUGG [aaaU]	43.4	102	116	144	115
GUCGGAGUCGGAAGGAGCGACAUGAGGAUCACCCAUGUCUCCCGUUAUGGGAGUUCCUUAGGUCAGGUAGGUCGCCGACUCCGAC [#1 Exclusion - Arginine B Attempt #24 (Inspired by Omei)]	104	202	240	190	234
GGGUGCGGGUGAAGGAGCGUGAAGACAUGAGGAUCACCCAUGUAGAGGCCCGAACAGGGUUCGCAGGUAGGUCGCACCCGUGCCC [#1 Same State - Arginine B Attempt #3 (HarryS)]	12	22.8	16.4	17.3	19.5
ACAUGAGGAUCACCCAUGUCUGCCACUGAUACCAGCGGAAGAAAACGCCCUUGGCAGCAGAACAUGAGGAUCACCCAUGUAGGCU [Same State Theophylline A GF29]	39.6	166	140		
CUGCCAUGCAGAGAUACCAGUGAGCCCAUAACAUGAGGAUCACCCAUGUACGCCGCAGACCACCCUUGGCAGCUCUGCAUGGCAG [&#$*@]	21.7	18.4	16.6	17.4	11.4
AUUUAUUAGACGGCCGCCACUUGAAAGAGACCUCAUAAAUGGGAACAUGAGGAUCACCCAUGUAAGAGGACCGGGUCUAGUAGAU [TryptB-ms2@45]	55.2	497	610	567	1320
UCGCGAUAGAGAAGGAGCGUCAACACCACUUAACAUGAGGAUCACCCAUGUGUUACUUUAAGACAGGUAGGUCGCUCUAGCGCUU [JR_Nu_ExcArginiB_Sub027]	12.7	16.5	11.5	12.4	14.2
AUGCAUGUCAGAAGGAGCGUCUUUAACAUGAGGAUCACCCAUGUAACAUUGAAUUCGAUGAGACAGGUAGGUCGCUGAAUAGUAA [JR_SSArginiB_Sub020]	21.1	72.3	42.9	82.8	62.5
GACCCAUGAGUUGCAAAAGCUCAUGGGUCGCGAGGACCGGUACGGCCGCCACUCGGCUGUACAUGAGGAUCACCCAUGUCAGGGU [#1 Same State - Tryptophan A Attempt #26 (HarryS)]	54.4	615			845
UUAAUCAUGUUAGAAAACUAAUAUGCAGAAGGAGCGUGAUAAAACACAGGUAGGUCGCUGAAGGGAACAUGAGGAUCACCCAUGU [AstrosSSArgA#9]	42.8	43.6	34.8	37	37.3
CACGAAAGAUCGGCCGCCACUCAUGUAGCUUACAUGAGGAUCACCCAUGUAUUUUCUUUCUUUUAGAGGACCGGGAUCGAGCGUG [#02 Same State - Tryptophan B]	33.6	65.2			43.5
GGUUACUCUACGGCCGCCACUGUCAUGUAAAGAUACCUGUACAUGACAUGAGGAUCACCCAUGUGCAGGACCGGGUAGUGUAACC [Tryptophan B 18]	91.3	177			201

Reference: the supplement of paper PMC9170038
